# Test results: the nanobody polyreactivity screen of Harvey et al. (2022)
# Test: yeast display, Sf9 membrane polyspecificity reagent, FACS + sequencing; frameworks hold sequencing errors
# In short: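 Synthetic nanobody libraries on Saccharomyces cerevisiae BJ5465 were galactose-induced for 36–48 hours, stained 1 hour at 4 °C with 10% biotinylated, detergent-solubilized Sf9 membrane reagent and enriched on streptavidin microbeads. FACS then separated cells into low and high (top ~1%) gates by anti-HA (expression) and streptavidin (reagent binding) fluorescence. Genes were colony-PCR amplified, MiSeq 2 × 250 sequenced and CDR-length filtered. A clone's polyreactivity label is that of its gate of origin.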
row,Sequence,polyreactivity (PSR sort gate)
1,QVQLVESGGGLVQAGGSLRLSCAASGRIFGYYAIGWYRQAPGKERELVAAITINGGRTYYADSVKGRFTISRDNAKNTVYLQMNSLKPEDTAVYYCTATSRYNRLGYWGQGTQVTVSS,high polyreactivity
2,QVQLVESGGGLVQAGGSLRLSCAASGSTFSYYTMGWYRQAPGKERELVAGISYSGGRTYYADSVKGRFTSSRDKAKNTVYLQMNSLKPEDTAVYYCAKVSWRRGAFYYWGQGTQVTVSS,high polyreactivity
3,QVQLVESGGGLVQAGGSLRLSCAASGSIIYYNAMGWYRQAPAKERELVAAITGSGGSTYYADSVKGRFTISRDNAINTVYLQMNSLKPEDTAVYDCAADYSLYGWWFRNDYWGQGTQVTVSS,low polyreactivity
4,QVQLVESGGGLVQAGGSLRLTCAASGLTFYSNTMGWYIQAPGKERELVAAISWTGTSTYYADSVKVRFTISRDNAKNTVFLQMNSLKAEDTAVYYWNALGYARSYDSWGQGTQVTVSS,high polyreactivity
5,QVQLVESVGGLVQAGDSLPLSCAPSAYIFRAYAMGWFRQAPGKASELVAAISSRGGSTYYADSVKGRFTISRDNATQTVYLQMNSLKPEDTAVYYCAAAYRQPYIGYGYWGQGTQVTVTS,high polyreactivity
6,QVQLVESGGGLVQAGGSLRLSCAASGSIFYSYAMGWYRQAPGKERELVAAINSGGRTYYADSVKGRFTISRDNAKNTVYLQMNSLKPEDTAVYYCAARHRWGRAYDYWGQGTQVTVSS,high polyreactivity
7,QVQIVESGGGLVQAGGSLRLSCADSGRIFYLYDMGWYRQAPGKERELVATISCSGGSTYYADSVMGRFTISRDNAKNTVYLQMNSLKPEDTALYYCAAVSVSSWYDYWGQGTQVTVSS,low polyreactivity
8,QVQLVESGGGLVQAGGSLRLSCAASGRTYVNTMGWYRQAPGKERELVAAISWSGGRTRYADSVKGRFTISRDNAKNTVYLQMNSLKPEDTAVYYCAKRTYSRKFRGAYNYWGQGTQVTVSS,high polyreactivity
9,QVLLVESGGGLVQAGGSLRLSCAATGSIFVGYVMGWYRQAPGKERELVAAISRSGGRTYYADSVKGRFTISRDNAKNTVYLQMNSLKPEDTAVYYCAVRHRFYTAGYDYWGQGTQVTVSS,low polyreactivity
10,QVQLVESGGGLVQAGGSLRLSCAASGRTFGKYAMGWYRQAPGKERELVATISRSGGSTYYADSVKGRFTISRDNAKNTVYLQMNSLKPEDTAVYYCNAVTSRYIWPPVLDRYHYWGQGTQVTVSS,high polyreactivity
11,QVQLVESGGGLVQAGGSLRLSCAASGSTFSGYAMGWYRLAPGKERELVASISSGGRTTYADSVKGRFTISRDNAKYTVYLQMNSLKPEDTAVSYCANRIRPGYARLYSWGQGTQVTVSS,high polyreactivity
12,QVQLVESGGGLVQAGGSLRLSCAASGITFKGNAMGWYRQAPGKERELVAAIRWRAGRTYYADSVKGRFTISRDNAKNTVYLQMNSLKPEDTAVYYCAAVGRYAYRRGSFLAYKSNYDYWGQGTQVTVSS,high polyreactivity
13,QVQLVESGGGLVQAGGSLRLSCAASGIIFIPYAMGWYRQAPGKERELVASISKRGGRTYYADSVKGRFTISRDNAKNTVYLQMNSLKPEDTAVYYCAAYARYPVVYGVDYWGQGTQVTVSS,high polyreactivity
14,QVHLVESGGGLVLAGGSLRLSCAASGSTLHLYAMGWYRQAPGKERELVADITSGGDTYYADSVKGRFTISRDNAKNTVYFQMNSLKPEDTAVYYCAAGPVYDWRGGALRYYYWGQGTQVSVSS,high polyreactivity
15,QVQLVESGGGLVQAGGSLRSSCAASGSIFQYYALGWYRQAPGNERELVAAISSGGRTNYADSVKGRFTISRDNAKNTVYLQMNSLKPEDTAVYYCAAARYYYQVYRWEYDYWGQGTQVTVSS,high polyreactivity
16,QVQLVESGGGLVQAGGSLRLSCAASGSTFPDYAMGWYRQAPGKERELVAAISYRGGSTNYADSVKGRFTISRDNAKNTVYLQMNSLKPEDTAVYYCATDDYYPQPFYYEYDYWGQGSQVTVSS,low polyreactivity
17,QVQLVESVVGLVQAGGSLRLSSAASGGTFSENAMGWYRQAPGKERELVAAITWSVGNTYADSVKGLFTISRDNAKNTVYLQMNSLKPEDTAVYYCAKDFSVPAYDYWGLGTQVTVSS,low polyreactivity
18,QVHLVESGVGLVQAGGSLRLSCAASGYTFPAYAMGRYRQAPVKERELVAGISSGGRTYYAYSVKGRFTISRDNAKNTVYLQMNSLKPEDTAVYYCAAFRFYWQSPERYYYWGQGTQVSVSS,high polyreactivity
19,QVQLVESGGGLVQAGGSLRLSCAASGLIFRYYAMGWYRQAPGKERELVAVISRRGDSTYYADSVKGRFTISRDNAKNTVYLHMNSLKPEDTAVYYCAAQAFVSYFKFRGGYWGQGTQVTVSS,high polyreactivity
20,QFQLVESGGGLVQAGGSLRLSCAASGSIFPGYAMGWYRQAPGKERELVAAITVSGVSTYYADSVKGRFTISRDNEKNTVYLQMNSLKPEDTAVYYCARDNWQLYPSTWYDYWGQGTQVNVSS,high polyreactivity
21,QVQLVESGGGLVQAGGSLRLSCAASGRIFYINALGWYRQAPGKERELVASITGSGDSTYYADSVKGRFTISRDNAKNTVELQMNSLKPEDTAVYYCAARTYYYYGPRYYYWGQGTQVTVSS,low polyreactivity
22,QVQLVESGGGLVQAGGSLRLSCAASGSTFDKKAMGWYRQAPGKERELVAAITWRGGRTYYADSVKGRFTISRDNAKNTVYLQLNSLKPEDTAVYYCNKVSWEQMDYWGQGTQVTVSS,low polyreactivity

row,Sequence,polyreactivity (PSR sort gate)
1,QVQLVESGGGLVQAGGSLRLSCAASGSTFPRYAMGWYRQAPGKERELVASITSDGGSTYYADSVKGRFTISRDNAKNTVYLQMNSLKPEDTAVYYCNKVPYRGYRRYGYWGQGTQVTVSS,high polyreactivity
2,QVQHVESGGGLVQAGGSLRLSCAASGRIIRGNVMGWYRQAPGKERELVATITSSARTYYADSVKGRFTISRDNAKNTVYLQMNSLKPEDTAVYYCANKQPRYRLRMNYWGQGTQVTVSS,high polyreactivity
3,QVQLVESGGGLVQAGGSLSLSCAASGSIFGVNAMGWYRQAPGKERELVAAITLRSGSTYYADSVKGRFTISRDNAKNTVYIQMNSLKPEDTAVYYSATYSWGVDRPNYNYWGQGTQVTVSS,low polyreactivity
4,QVQLVESGGGLVQAGGSLRLSCAASGRIFYNYAMGWYRQAPGKERELVAAISSSGGSTYYADSVKGRFTISRDNAKNTVYLQMNSLKPEDTAVYYCAVRKQYSGRYYRAYDYWGQGTQVTVSS,high polyreactivity
5,QVQLEESGGGLVQAGGSLRLSCAASGIIFRCYCMGWYRQAPGKDRELVATITSGGRTNYADSVKGRFTISRDKAKNTVYLQMNSLNTEDTAVYYCAAARLFAMDYWGQGTQVTVSS,low polyreactivity
6,QVHLVESGGGLVQAGGSLRLSCAASGSTFATNAMGWYRQAPGIERELVAAITDGGSTNYADSVKGRFTISRDNAKNTVYLQMNSLKPEDTAVYYCAADGFKTVLPEYDYWGQGTQVTVSS,low polyreactivity
7,QVQLVESGGGLVQAGGSLRLSCAASGSTLDPNVMGWYRQAPGKEREWVAAITTGGSTYYADSVKGRFTFSRDNAKNTVYLQLYSLKPEDTAFYYCNKDIGWLAHSRIWLWYDYWGQGTQVTVAS,low polyreactivity
8,QVQLVESGGGLVQAGGSLRLSCAASGRIFRGYTMGGYRQAPGKERELVADITKRGGSTDYADSVKGRFTISRDNAKNTVYLQMNSLKPEDTEVYSCAARGPTFGVDYGYWGQGTQVTGSS,high polyreactivity
9,QVQLVESGGGLVQAGGSLRLSCAASGFTFWYNDMGWYRQAPGKEREFVAAITTSGGNTYYADSVKGRFTISRDNAKNTVYLNMNSLIPEDTAVYYCAAEEGSSDATGYDYWGQGTQVTVSS,low polyreactivity
10,QVQLVESGGGLVQAGGSLRLSCAASGSIFWYYAMGWYRQAPGKERELVAAITGSGVRTYYADSVKGRFTISRDNAKNTVYLQMNSLKPEDTAVYYCNAVSSHSFYFYGDHNYWGQGTQVTVSS,low polyreactivity
11,QVQLVESGGGLVQAGGSLRLSCASSGRIFRWYAMGWYRQAPGKERELVAAISRSGTSTYYADSVKGRFTISRDNAKNTVFLQMNSLKPEDTAVYYCNTDVQVYSYNYWGQGTQVTVSS,low polyreactivity
12,QVQLVESGGGLVQAGGSLRLSCAASGITFAYYAMGWYRQAPGKERELVAAIRWSGGDTYYADSVKGRFTISRDNAKNTVYLQMNSLKPEDTAVYYCAADTTWGYDYWGQGTQVTVSS,low polyreactivity
13,QVQLVESGGGLVQAGGSLRFSCAASGSTYYYNAMGWDRQAPGKERELVASISWSGGSTRYADSVKGRFTISRDNAKNTVYLQMNSLKPEDTAVYYCAARYILSKYGSGVRYNYWGQGTQVSVSS,high polyreactivity
14,QVQLVESGGGLVQAGGSLRLSCAASGSTFHGNAMGWYRQAPGKERELVAAISRSGGSTYYADSVKGRFTISRDNAKNTVYLQMNSLKPEDTAVYYCAADRPYYPLKYDYWGQGTQVTVSS,high polyreactivity
15,QVQLVESGGGLVQAGGSLRLSCAASARTFGVYAMGWYRQAPGKERELVAAISKSDGSTYYADSVKGRFTISRDNAKITVYLQMNSLKPEDTAVYYCATVTLHQRDTQDDFWGQGTQVTVSS,low polyreactivity
16,QDQLVESGGGLVQAGGSLRLSCAASGRTFYYSAMGWSRQAPGKERELVATMSRGITNYADSVKGRFTISRDNAKNTVYLQMNSLKPEDTAVYYCAARDGWRSHFRGDYWGQGTQVTVSS,high polyreactivity
17,QVQLVESGGGLVEAGGSLRLTCEASGSIISYYVMGWYRQAPGKERELVAAISSSGGRTYYADSVKGRFTISRDNSKNTVYLQMNSLKPDDNAVYYCAARDRPSPYYYWGQGTQVNVSS,high polyreactivity
18,QVQLVESGGGLVQAGGSLRLSCAASGIILSYYVMGWYRQAPGKERELVAAISLRGGSRTYYADSVNGRFTISRDNAKNTVYLQMNSLKPEDTAVYYCAKLRWVYGRQTLMDYWGQGTQVTVSS,high polyreactivity
19,QVQLVESGGGLVQAGGSLRLSCAASGSTFYYYAMGWSRQAPGKERELVATITSGGSTNYADSVKGRFTISRDNAKNTVYLQMNSLKPEDTAVYYCNADDGYSVWGYDYWGQGTQVTVSS,low polyreactivity
20,QVQLVESGGGLVQAGGSLRLSCAASGRTFYSYAMGWYRQAPGKERELVAAISKRGTSTYYADSVKGRFTISRDNAKNTVYLQMNSLKPEDTAVYYCAAAYRGREVEYNSWGQGTQVTVSS,high polyreactivity
21,QVQLVESGGGLVQAGGSLRLSCAASGFTFVSNAMGWYRQAPGKERELVAVISSGGSTTYADSVKGRFTISRDNAKNTVYLQMNSLKPEDTAVYYCATTNYQDSYEGGDYWGQGTQVTVSS,low polyreactivity
